Test results published in ChEMBL document CHEMBL3865823, “Ameliorative effects of amide derivatives of 1,3,4-thiadiazoles on scopolamine induced cognitive dysfunction” (Eur J Med Chem, 2016).

What was measured:
Assay type in all cases: tissue-based
[1] = compound: O=C(Nc1nnc(-c2ccccc2)s1)c1cccc(CCl)c1; assay: (§1) Inhibition of albino mouse brain AChE assessed as Km for substrate using acetylthiocholine iodide as substrate measured for 2 mins by Ellmans method
[2] = compound: CC(=O)Oc1cccc(C(=O)Nc2nnc(Cc3ccccc3)s2)c1; assay: as §1
[3] = compound: Cc1ccc(-c2nnc(NC(=O)CC(C)CC(C)(C)C)s2)cc1; assay: as §1
[4] = compound: CC(=O)Oc1cccc(C(=O)Nc2nnc(-c3ccccc3)s2)c1; assay: as §1
[5] = compound: CC(=O)Oc1cccc(C(=O)Nc2nnc(-c3ccccc3Cl)s2)c1; assay: as §1
[6] = compound: CC(=O)Oc1cccc(C(=O)Nc2nnc(-c3ccc(C)cc3)s2)c1; assay: as §1
[7] = compound: CC(CC(=O)Nc1nnc(-c2cccc(Cl)c2)s1)CC(C)(C)C; assay: as §1
[8] = compound: CC(CC(=O)Nc1nnc(Cc2ccccc2)s1)CC(C)(C)C; assay: as §1
[9] = compound: O=C(Nc1nnc(-c2ccccc2Cl)s1)c1cccc(CCl)c1; assay: as §1
[10] = compound: Cc1ccc(-c2nnc(NC(=O)c3cc(C(F)(F)F)cc(C(F)(F)F)c3)s2)cc1; assay: as §1
[11] = compound: O=C(Nc1nnc(Cc2ccccc2)s1)c1cccc(CCl)c1; assay: as §1
[12] = compound: Cc1ccc(-c2nnc(NC(=O)c3cccc(CCl)c3)s2)cc1; assay: as §1
[13] = compound: O=C(Nc1nnc(-c2ccccc2Cl)s1)c1cc(C(F)(F)F)cc(C(F)(F)F)c1; assay: as §1
[14] = compound: CC(CC(=O)Nc1nnc(-c2ccccc2)s1)CC(C)(C)C; assay: as §1

B1: Acetylcholinesterase (Mus musculus), P21836 (protein)
chain: MRPPWYPLHTPSLAFPLLFLLLSLLGGGARAEGREDPQLLVRVRGGQLRGIRLKAPGGPVSAFLGIPFAEPPVGSRRFMPPEPKRPWSGVLDATTFQNVCYQYVDTLYPGFEGTEMWNPNRELSEDCLYLNVWTPYPRPASPTPVLIWIYGGGFYSGAASLDVYDGRFLAQVEGAVLVSMNYRVGTFGFLALPGSREAPGNVGLLDQRLALQWVQENIAAFGGDPMSVTLFGESAGAASVGMHILSLPSRSLFHRAVLQSGTPNGPWATVSAGEARRRATLLARLVGCPPGGAGGNDTELIACLRTRPAQDLVDHEWHVLPQESIFRFSFVPVVDGDFLSDTPEALINTGDFQDLQVLVGVVKDEGSYFLVYGVPGFSKDNESLISRAQFLAGVRIGVPQASDLAAEAVVLHYTDWLHPEDPTHLRDAMSAVVGDHNVVCPVAQLAGRLAAQGARVYAYIFEHRASTLTWPLWMGVPHGYEIEFIFGLPLDPSLNYTTEERIFAQRLMKYWTNFARTGDPNDPRDSKSPQWPPYTTAAQQYVSLNLKPLEVRRGLRAQTCAFWNRFLPKLLSATDTLDEAERQWKAEFHRWSSYMVHWKNQFDHYSKQERCSDL
B1 gave a Km [1] of 16.4 µM, a Km [2] of 4.47 µM and a Km [3] of 7.86 µM. It also gave a Km [4] of 1.37 µM, a Km [5] of 16 µM and a Km [6] of 8.01 µM. The Km [7] was 17.7 µM, the Km [8] was 24.9 µM and the Km [9] was 15.3 µM. For the same protein, the Km [10] was 4.89 µM, the Km [11] was 12.9 µM and the Km [12] was 1.9 µM. It also gave a Km [13] of 2.35 µM and a Km [14] of 9.09 µM.
